Results as given in publication PMC5658023 (Current biology : CB, 2017).
Like-named read-outs stand apart in the source and are kept apart here.

T1: GST-Chs4-SLR (220-610) (S. cerevisiae, UniProt P34226 220-610)
T1 sequence (looked up): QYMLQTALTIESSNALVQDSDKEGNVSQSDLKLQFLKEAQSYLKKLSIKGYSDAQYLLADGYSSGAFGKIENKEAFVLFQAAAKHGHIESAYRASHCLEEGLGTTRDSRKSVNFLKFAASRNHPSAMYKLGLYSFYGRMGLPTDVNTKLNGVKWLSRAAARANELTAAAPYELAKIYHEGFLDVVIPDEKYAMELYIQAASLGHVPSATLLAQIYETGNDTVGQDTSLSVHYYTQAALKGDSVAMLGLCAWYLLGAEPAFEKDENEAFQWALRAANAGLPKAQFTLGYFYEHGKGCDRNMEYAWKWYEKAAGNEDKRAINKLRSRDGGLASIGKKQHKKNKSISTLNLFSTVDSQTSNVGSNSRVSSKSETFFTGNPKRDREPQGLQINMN

T2: His6-Chs3-MID (477-1028) (S. cerevisiae, UniProt P29465 477-1028)
T2 sequence (looked up): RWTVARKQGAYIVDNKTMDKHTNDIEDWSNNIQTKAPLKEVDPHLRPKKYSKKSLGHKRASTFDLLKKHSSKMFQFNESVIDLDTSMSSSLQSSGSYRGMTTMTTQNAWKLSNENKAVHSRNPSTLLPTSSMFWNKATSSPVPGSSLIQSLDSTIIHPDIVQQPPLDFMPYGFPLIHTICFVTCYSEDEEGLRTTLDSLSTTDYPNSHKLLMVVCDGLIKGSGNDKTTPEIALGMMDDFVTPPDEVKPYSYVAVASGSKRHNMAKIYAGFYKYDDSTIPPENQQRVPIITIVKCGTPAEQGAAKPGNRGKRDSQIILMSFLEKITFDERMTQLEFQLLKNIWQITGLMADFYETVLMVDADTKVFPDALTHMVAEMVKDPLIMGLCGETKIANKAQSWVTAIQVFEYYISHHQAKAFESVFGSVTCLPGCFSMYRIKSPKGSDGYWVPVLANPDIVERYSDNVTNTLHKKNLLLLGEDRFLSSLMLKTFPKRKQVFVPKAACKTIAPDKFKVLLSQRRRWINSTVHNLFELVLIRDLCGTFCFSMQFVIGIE

B1: MBP-Hof1-F-BAR (1-275) (domain or fragment, S. cerevisiae, UniProt Q05080 1-275, looked up)
chain: MSYSYEACFWDPNDNGVNILLGHISQGIRSCDSMILFFKQRSELEKDYARRLGAITGKLDKDIGTNMDYGKLNETFNVVLSVEKARAQSHSKQSEILFRQIYTDTKAFAANLQARYTTLSGKIERLRMDKFNKKKGCEVLQKKLQDAQIRFRDLQLNENNMIGAKRVEHNKRELLKWESNSQEYKVQLDVLKQEYKASQKFWIHEWAQLSCELQEMENARISFLQSKLQQFATSSMETYILEQTKMDMLTNHLNSFTAADEISTFSKENGTGRLK
B2: MBP-Chs4-SLR (220-610) (domain or fragment, S. cerevisiae, UniProt P34226 220-610, looked up)
chain: T1 sequence (looked up)
B3: His6-Hof1-N-term (domain or fragment, S. cerevisiae, UniProt Q05080 1-340, looked up)
chain: MSYSYEACFWDPNDNGVNILLGHISQGIRSCDSMILFFKQRSELEKDYARRLGAITGKLDKDIGTNMDYGKLNETFNVVLSVEKARAQSHSKQSEILFRQIYTDTKAFAANLQARYTTLSGKIERLRMDKFNKKKGCEVLQKKLQDAQIRFRDLQLNENNMIGAKRVEHNKRELLKWESNSQEYKVQLDVLKQEYKASQKFWIHEWAQLSCELQEMENARISFLQSKLQQFATSSMETYILEQTKMDMLTNHLNSFTAADEISTFSKENGTGRLKHKTSKGDMNSSANWAQMSSISTTSKKTESYMDNIRKLSSQLKETENKRKLASIDKYEKPLPSPEV
B4: MBP-Hof1-N-term (1-340) (domain or fragment, S. cerevisiae, UniProt Q05080 1-340, looked up)
chain: B3 chain

Key:
Experiment in all cases: pull-down
GST-Chs4-SLR (220-610) [1] = target: T1, GST-Chs4-SLR (220-610)
His6-Chs3-MID (477-1028) = target: T2, His6-Chs3-MID (477-1028)
GST-Chs4-SLR (220-610) [2] = target: T1, GST-Chs4-SLR (220-610); remark: listed apart in the source
MBP-Chs4-SLR (220-610) = target: B2

B1
binding result (GST-Chs4-SLR (220-610) [1]): binds

B2
binding result (His6-Chs3-MID (477-1028)): binds

B3
binding result (GST-Chs4-SLR (220-610) [2]): binds | binding result (MBP-Chs4-SLR (220-610)): binds

B4
binding result (GST-Chs4-SLR (220-610) [1]): binds
